This is an account of results in patent US20230000950A1, “COMPOSITION COMPRISING GLUCAGON AND GLP-1 AND GIP RECEPTOR DUAL AGONIST AND THERAPEUTIC USE OF SAME” (HANMI PHARM. CO., LTD., priority 2019, published 2023).

Positions of bridges follow the written chain, without caps; N, C: chain ends. Non-standard residues stand in square brackets, D forms with d. No end group written: not given here. Aib = CC(C)(N)C(=O)O A value given as a limit tells only on which side of the number the result lay.

Chain of human glucagon receptor (P47871 26-477): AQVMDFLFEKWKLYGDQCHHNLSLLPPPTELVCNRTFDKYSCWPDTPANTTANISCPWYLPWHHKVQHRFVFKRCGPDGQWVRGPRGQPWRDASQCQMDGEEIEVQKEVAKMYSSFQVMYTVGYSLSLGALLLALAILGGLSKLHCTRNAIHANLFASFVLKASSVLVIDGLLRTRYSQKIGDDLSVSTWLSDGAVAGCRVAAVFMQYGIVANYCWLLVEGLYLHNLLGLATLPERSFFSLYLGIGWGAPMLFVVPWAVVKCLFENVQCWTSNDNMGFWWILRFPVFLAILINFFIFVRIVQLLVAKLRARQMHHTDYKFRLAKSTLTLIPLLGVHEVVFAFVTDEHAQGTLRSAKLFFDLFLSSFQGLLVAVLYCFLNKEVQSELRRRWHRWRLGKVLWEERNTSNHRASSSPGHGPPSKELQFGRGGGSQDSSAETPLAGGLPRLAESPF

The experiment concerns the target human glucagon receptor (human, UniProt P47871 26-477). The experiment is described as follows: cell-based or functional assay.
In the case of Y[Aib]QGTFVSDCSKYLDERRAKDFVQWLMNT (lactam 16-20) [glucagon derivative of SEQ ID NO: 39], the “In vitro activity (relative activity to SEQ ID NO: 1, %), cAMP assay, from EC50” value amounted to 3.7%.

For Y[Aib]QGTFCSDYSKYLDERRAKEFVQWLMNT (lactam 16-20) [glucagon derivative of SEQ ID NO: 38], the “In vitro activity (relative activity to SEQ ID NO: 1, %), cAMP assay, from EC50” value was determined as 167%.

With Y[Aib]QGTFTSDYSCYLDSRRAQDFVQWLMNT [glucagon derivative of SEQ ID NO: 13], the “In vitro activity (relative activity to SEQ ID NO: 1, %), cAMP assay, from EC50” value turned out to be 5.2%.

As for Y[Aib]QGTFVSDYSKYLDECRAKDFVQWLMNT (lactam 16-20) [glucagon derivative of SEQ ID NO: 27], the “In vitro activity (relative activity to SEQ ID NO: 1, %), cAMP assay, from EC50” value worked out at 93.6%.

In the case of SQGTFTSDYSKYLDECRAKEFVQWLMNT (lactam 15-19) [glucagon derivative of SEQ ID NO: 32], the “In vitro activity (relative activity to SEQ ID NO: 1, %), cAMP assay, from EC50” value amounted to 0.7%.

For the molecule Y[Aib]QGTFTSDYSKYLDCVRAQDFVQWLMRT [glucagon derivative of SEQ ID NO: 17], the “In vitro activity (relative activity to SEQ ID NO: 1, %), cAMP assay, from EC50” value amounted to 23.2%.

In the case of Y[Aib]QGTFTSDYSKCLDERRAKDFVQWLMNT (lactam 16-20) [glucagon derivative of SEQ ID NO: 29], the “In vitro activity (relative activity to SEQ ID NO: 1, %), cAMP assay, from EC50” value came to 61.3%.

Regarding W[Aib]QGTFTSDYSKYCDERRAKEFVQWLMNT (lactam 16-20) [glucagon derivative of SEQ ID NO: 34], the “In vitro activity (relative activity to SEQ ID NO: 1, %), cAMP assay, from EC50” value was 0.2%.

Y[Aib]QGTFTSDYSKYLDEKRCKEFVQWLMNT (lactam 16-20) [glucagon derivative of SEQ ID NO: 22]: the “In vitro activity (relative activity to SEQ ID NO: 1, %), cAMP assay, from EC50” value was determined as 148%.

As to Y[Aib]QGTFTSDYSKYLDSCDADDFVVWLINT [glucagon derivative of SEQ ID NO: 10], the “In vitro activity (relative activity to SEQ ID NO: 1, %), cAMP assay, from EC50” value was below 0.1%.

In the case of Y[Aib]QGTFTSDYSKYCDERRAKEFVQWLMNT (lactam 16-20) [glucagon derivative of SEQ ID NO: 35], the “In vitro activity (relative activity to SEQ ID NO: 1, %), cAMP assay, from EC50” value is 17.7%.

On to HSQGTFTSDYSKYLDCDRAQDFVQWLMNT [glucagon derivative of SEQ ID NO: 2], for which the “In vitro activity (relative activity to SEQ ID NO: 1, %), cAMP assay, from EC50” value turned out to be 0.6%.

As to HSQGTFTSDYSKYLDCERAQDFVQWLMNT [glucagon derivative of SEQ ID NO: 3], the “In vitro activity (relative activity to SEQ ID NO: 1, %), cAMP assay, from EC50” value is 6.1%.

Take Y[Aib]QGTFTSDYSKYLDEKRAKEFVQWLMNTC (lactam 16-20) [glucagon derivative of SEQ ID NO: 12]: the “In vitro activity (relative activity to SEQ ID NO: 1, %), cAMP assay, from EC50” value stood at 56.3%.

Consider Y[Aib]QGTFTSDYSKYLDEKCAKEFVQWLMNT [glucagon derivative of SEQ ID NO: 11], for which the “In vitro activity (relative activity to SEQ ID NO: 1, %), cAMP assay, from EC50” value was 4.6%.

For W[Aib]QGTFTSDYSKYLDECRAKDFVQWLMNT (lactam 16-20) [glucagon derivative of SEQ ID NO: 26], the “In vitro activity (relative activity to SEQ ID NO: 1, %), cAMP assay, from EC50” value turned out to be 1%.

Turning to Y[Aib]QGTFTSDYSKYLCEKRAKEFVQWLMNT (lactam 16-20) [glucagon derivative of SEQ ID NO: 19], the “In vitro activity (relative activity to SEQ ID NO: 1, %), cAMP assay, from EC50” value was determined as 12.1%.

For the molecule YXQGTFTSDYSKYLDSRRAQDFVQWLMNT (X at position 2 = aminoisobutyric acid (Aib)) [glucagon derivative of SEQ ID NO: 33], the “In vitro activity (relative activity to SEQ ID NO: 1, %), cAMP assay, from EC50” value was found to be 108%.

As to Y[Aib]QGTFTSDYSKYCDEKRAKEFVQWLMNT (lactam 16-20) [glucagon derivative of SEQ ID NO: 23], the “In vitro activity (relative activity to SEQ ID NO: 1, %), cAMP assay, from EC50” value was 76.8%.

With W[Aib]QGTFTSDYSKCLDERRAKDFVQWLMNT (lactam 16-20) [glucagon derivative of SEQ ID NO: 30], the “In vitro activity (relative activity to SEQ ID NO: 1, %), cAMP assay, from EC50” value worked out at 0.3%.

Consider Y[Aib]QGTFTSDYSKYLDSRRACDFRLWLMNT [glucagon derivative of SEQ ID NO: 18], for which the “In vitro activity (relative activity to SEQ ID NO: 1, %), cAMP assay, from EC50” value is below 0.1%.

Take Y[Aib]QGTFTSDYSKYLDEKRAKCFVQWLMNT (lactam 16-20) [glucagon derivative of SEQ ID NO: 25]: the “In vitro activity (relative activity to SEQ ID NO: 1, %), cAMP assay, from EC50” value was 46.9%.

Y[Aib]QGTFTSDYSKYLDECRAKEFVQWLMNT (lactam 16-20) [glucagon derivative of SEQ ID NO: 20]: the “In vitro activity (relative activity to SEQ ID NO: 1, %), cAMP assay, from EC50” value was 300%.

In the case of Y[Aib]QGTFTSDYSKYLDCKRAKEFVQWLMNT (lactam 17-21) [glucagon derivative of SEQ ID NO: 31], the “In vitro activity (relative activity to SEQ ID NO: 1, %), cAMP assay, from EC50” value turned out to be 6.3%.

Take W[Aib]QGTFVSDYSKYLDECRAKDFVQWLMNT (lactam 16-20) [glucagon derivative of SEQ ID NO: 28]: the “In vitro activity (relative activity to SEQ ID NO: 1, %), cAMP assay, from EC50” value was below 0.1%.

On to Y[Aib]QGTFTSDCSKYLDERRAKEFVQWLMNT (lactam 16-20) [glucagon derivative of SEQ ID NO: 36], for which the “In vitro activity (relative activity to SEQ ID NO: 1, %), cAMP assay, from EC50” value was determined as 9.9%.

Turning to Y[Aib]QGTFTSDYSKYLDCKRAKEFVQWLMNT [glucagon derivative of SEQ ID NO: 14], the “In vitro activity (relative activity to SEQ ID NO: 1, %), cAMP assay, from EC50” value stood at 18.1%.

Take Y[Aib]QGTFTSDYSKCLDEKRAKEFVQWLMNT (lactam 16-20) [glucagon derivative of SEQ ID NO: 24]: the “In vitro activity (relative activity to SEQ ID NO: 1, %), cAMP assay, from EC50” value was 58%.

Consider Y[Aib]QGTFTSDYSKYLDEKCAKEFVQWLMNT (lactam 16-20) [glucagon derivative of SEQ ID NO: 21], for which the “In vitro activity (relative activity to SEQ ID NO: 1, %), cAMP assay, from EC50” value was 57.8%.

Consider Y[Aib]QGTFTSDYSKYLDSCDAQDFVVWLINT [glucagon derivative of SEQ ID NO: 9], for which the “In vitro activity (relative activity to SEQ ID NO: 1, %), cAMP assay, from EC50” value was below 0.1%.

Turning to Y[Aib]QGTFTSDYSKYLDCRRAQVFVQWLMRT [glucagon derivative of SEQ ID NO: 16], the “In vitro activity (relative activity to SEQ ID NO: 1, %), cAMP assay, from EC50” value was found to be 4.2%.

With Y[Aib]QGTFTSDYSKYLDERRAKEFVQWLMNTC (lactam 16-20) [glucagon derivative of SEQ ID NO: 37], the “In vitro activity (relative activity to SEQ ID NO: 1, %), cAMP assay, from EC50” value is 226%.

With Y[Aib]QGTFVSDYSKYLDERRAKDFVQWLMNTC (lactam 16-20) [glucagon derivative of SEQ ID NO: 40], the “In vitro activity (relative activity to SEQ ID NO: 1, %), cAMP assay, from EC50” value was 40.8%.
